This series deals with the molecule itself. The series is described as follows: SEC. A general note: SEC sorts molecules by how far they enter the pores of the column.

B1: human H46R/H48Q copper-zinc superoxide dismutase (SOD1) double mutant (enzyme)
chain: not shown
With B1, the “stoichiometry N” value amounted to 2.

Broadly, the stoichiometry N is the number of molecules, sites or subunits per partner or assembly.

The values are drawn from paper PMC2757159 (Biochemistry, 2009).
